{
  "source": "patent US7741276B2",
  "about": "“Use of interleukin-18 inhibitors to inhibit tumor metastasis” (Ares Trading S.A., priority 1999, dated 2010)",
  "key": {"[1]": {"system": "B16M cell adhesion to IL-18-treated HSE", "assay": "B16M cell adhesion to IL-18-treated HSE", "format": "cell-based, mouse", "method": "FIG. 4. In vitro B16M cells adhesion to IL-18-treated HSE. HSE cells were incubated with 1 ng/ml recombinant murine IL-18 for 6 hours. In some experiments, 10 μg/ml TNF-sRp55 or 100 ng/ml IL-1Ra was added 10 min before IL-18.In other experiments, 10 μg/ml anti-VCAM-1 antibody or a similar concentration of non-specific anti-mouse lgG was added to HSE cells 30 min before B16M cells. Then, B16M cell adhesion percentage was determined as described hereinbelow in the examples. The results represent the mean ±SD of three separate experiments, each in sextuplicate (n=18). Differences in the degree of adhesion with respect to basal medium-treated HSE (*) and to IL-18-treated HSE (**) were statistically significant (P<0.01), according to the Student's two-tailed, unpaired t-test.\n(§1) HSE was separated from syngeneic mice, identified and cultured as previously described (26). B16M cells were labeled with 2′,7′-bis-(2-carboxyethyl)-5,6-carboxyfluorescein-acetoxymethylester solution (BCECF-AM, Molecular Probes, Eugene, Oreg.) as reported (16). Then, 2×10^5 cells/well were added to 24-well-plate cultured HSE and 8 min later, wells were washed three times with fresh medium. The number of adhering cells was determined using a quantitative method based on a previously described fluorescence measurement system (16). In some experiments, HSE cells were pre-incubated with B16M-CM for several hours before addition of B16M cells."}, "[2]": {"system": "B16M cell adhesion to HSE cells", "assay": "B16M cell adhesion to B16M-CM-treated primary HSE cultures", "format": "cell-based, mouse", "settings": "for % Melanoma Cell Adhesion: HSE stimulated with B16-CM", "method": "FIG. 2 Effect of irreversible ICE inhibitor and anti-mouse IL-18 antibody on B16M cell adhesion to HSE cells, and IL-1β and TNF-α production from untreated and B16M-CM-treated HSE. Cultured HSE cells were incubated in the presence of B16M-CM for 10 h. In some experiments, both untreated and treated HSE cells received 10 μM ICEi or 10 μg/ml anti-mouse IL-18 antibody before B16M-CM. The percentage of B16M cells adhered to HSE substrate was calculated as relative value with respect to the initial number of added cells. In addition, the culture supernatants were recovered before adhesion to determine IL-1β and TNF-α concentration by ELISA. Data represent the mean ±SD of 4 separate experiments, each in sextuplicate (n=24). The augmentation of B16M cell adhesion to B16M-CM-treated HSE and of IL-1β or TNF-α production with respect to untreated HSE (*P<0.01) were statistically significant according to the Student's two-tailed, unpaired t-test.\n(§2) FIG. 3. Effect of ICEi on B16M cell adhesion to B16M-CM-treated HSE in vitro. HSE cells were incubated with basal medium or B16M-CM for 8 h. Some HSE cells received 10 μM ICEi for 18 h before B16M-CM. In addition, 1 ng/ml recombinant murine IL-1β was also added to some HSE cells together with B16M-CM for 8 h. In other experiments, HSE cells received 1 ng/ml murine IL-1β or 100 pg/ml TNF-α for 6 h, and 10 μg/ml rabbit anti-mouse IL-18 polyclonal antibody was added or not 1 h before the cytokine treatment. Non-specific IgG polyclonal antibody was also added to untreated and cytokine-treated HSE cells. Then, HSE cells were washed and BCEFCF-AM-labeled B16M cells were added and washed again 8 min later. The percentage of B16M cells adhered to HSE substrate was calculated as relative value with respect to the initial number of added cells. The results represent the mean ±SD of three separate experiments, each in sextuplicate (n=18). Differences in the degree of adhesion with respect to untreated HSE (*) and to IL-1β or TNF-α-treated HSE (**) were statistically significant (P<0.01), according to the Student's two-tailed, unpaired t-test.\nCulture of B16M cells. B16M cells were cultured, maintained and passaged as previously described (11). B16M conditioned medium (B16M-CM) was prepared as follows: 5×10^5 cells were plated in a 25 cm^2 T-flask and cultured for 24 h. After which, cells were cultured for an additional period of 24 h in 5 ml serum-free medium (final cellular density of 6×10^4 cells/cm^2). Supernatants were collected, diluted 3:1 in fresh serum-free medium and passed through a 0.22 Ïm filter.\n(§3) HSE was separated from syngeneic mice, identified and cultured as previously described (26). […] The number of adhering cells was determined using a quantitative method based on a previously described fluorescence measurement system (16). […]"}, "[3]": {"system": "B16M cell adhesion to IL-1β or TNF-α-treated HSE", "assay": "B16M cell adhesion to IL-1β- or TNF-α-treated HSE", "format": "cell-based, mouse", "settings": "1 ng/ml murine IL-1β", "method": "as §2, §3"}, "B16M cells": {"system": "B16M cells", "assay": "Adhesion of pre-treated B16M cells (IL-18 or supernatant of B16M-CM-treated HSE) to HSE", "format": "cell-based, mouse", "settings": "B16M cells incubated with 1 ng/ml murine IL-18 for 6 h", "method": "However, local production of IL-18 may influence B16M cell behavior during its transit or arrest in the hepatic microvasculature.\nas §1"}, "circulating IFN-γ": {"system": "circulating IFN-γ", "settings": "administration of IL-18BP to mice; cited from earlier work"}, "IL-18": {"molecular_target": "T1, IL-18 (Homo sapiens, UniProt Q14116)", "T1 sequence (Q14116 37-193)": "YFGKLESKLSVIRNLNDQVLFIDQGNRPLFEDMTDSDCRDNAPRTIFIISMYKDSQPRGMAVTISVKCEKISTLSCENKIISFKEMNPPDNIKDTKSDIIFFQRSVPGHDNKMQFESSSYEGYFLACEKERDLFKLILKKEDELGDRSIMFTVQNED", "settings": "in vitro; cited from earlier work"}},
  "note": "“And” between values parts separate entries of the source, which are not always exact repeats. Equal entries are not always repeated. Marks after values point to notes of the source that are not given here.",
  "data": [
    {"molecule": "IL-1Ra: recombinant human IL-1 receptor antagonist, gift from The Upjohn Co. [reference compound]", "values": [
      {"measurement": "inhibition of IL-18-induced B16M cell adhesion to HSE", "setting": "[1]; 100 ng/ml IL-1Ra added 10 min before IL-18", "result": "neither TNF-sR p55 nor IL-1Ra were able to inhibit it"}
    ]},
    {"molecule": "murine IL-1β: recombinant murine IL-1β from R&D System Inc. (protein, UniProt P10749 118-269, looked up) Interleukin-1 beta: VPIRQLHYRLRDEQQKSLVLSDPYELKALHLNGQNINQQVIFSMSFVQGEPSNDKIPVALGLKGKNLYLSCVMKDGTPTLQLESVDPKQYPKKKMEKRFVFNKIEVKSKVEFESAEFPNWYISTSQAEHKPVFLGNNSGQDIIDFTMESVSS", "values": [
      {"measurement": "compensation of the blocking effect of ICEi on HSE adhesiveness", "setting": "[2]; 1 ng/ml murine IL-1β added with B16M-CM for 8 h to ICEi-treated HSE", "result": "did not compensate"},
      {"measurement": "B16M cell adhesion to IL-1β-treated control HSE", "setting": "[3]", "result": "significant B16M cell adhesion increase"}
    ]},
    {"molecule": "TNF-sR p55: human p55 TNF soluble receptor, gift from Serono Inc. (protein, UniProt P19438 30-211, looked up, extracellular domain) extracellular domain: LVPHLGDREKRDSVCPQGKYIHPQNNSICCTKCHKGTYLYNDCPGPGQDTDCRECESGSFTASENHLRHCLSCSKCRKEMGQVEISSCTVDRDTVCGCRKNQYRHYWSENLFQCFNCSLCLNGTVHLSCQEKQNTVCTCHAGFFLRENECVSCSNCKKSLECTKLCLPQIENVKGTEDSGTT", "values": [
      {"measurement": "inhibition of IL-18-induced B16M cell adhesion to HSE", "setting": "[1]; 10 μg/ml TNF-sRp55 added 10 min before IL-18", "result": "neither TNF-sR p55 nor IL-1Ra were able to inhibit it"}
    ]},
    {"molecule": "murine IL-18: recombinant murine IL-18 purchased from PeproTech (protein, UniProt P70380 36-192, looked up) Interleukin-18: NFGRLHCTTAVIRNINDQVLFVDKRQPVFEDMTDIDQSASEPQTRLIIYMYKDSEVRGLAVTLSVKDSKMSTLSCKNKIISFEEMDPPENIDDIQSDLIFFQKRVPGHNKMEFESSLYEGHFLACQKEDDAFKLILKKKDENGDKSVMFTLTNLHQS", "values": [
      {"measurement": "B16M cell adhesion to HSE", "setting": "[1]; HSE incubated with 1 ng/ml recombinant murine IL-18 for 6 hours, P<0.01", "result": "increased"},
      {"measurement": "increase of B16M cell adhesion to untreated HSE", "setting": "B16M cells", "result": 2, "unit": "fold"}
    ]},
    {"molecule": "IL-18BP: IL-18 binding protein, purified from urine, cloned and expressed in COS7 cells; binds IL-18 and blocks its activity (protein, UniProt O95998 31-194, looked up) Interleukin-18-binding protein: TPVSQTTTAATASVRSTKDPCPSQPPVFPAAKQCPALEVTWPEVEVPLNGTLSLSCVACSRFPNFSILYWLGNGSFIEHLPGRLWEGSTSRERGSTGTQLCKALVLEQLTPALHSTNFSCVLVDPEQVVQRHVVLAQLWAGLRATLPPTQEALPSSHSSPQQQG", "values": [
      {"measurement": "% Melanoma Cell Adhesion", "setting": "[2]; IL-18BP 1 ng/ml", "result": "15.00 ± 2.5** %"},
      {"measurement": "% Melanoma Cell Adhesion", "setting": "[2]; IL-18BP 10 ng/ml", "result": "8.70% and 8.70 ± 1.1** %"},
      {"measurement": "inhibition of B16-CM-induced adhesion", "setting": "[2]; IL-18BP 10 ng/ml, adhesion below basal medium level", "result": 100, "unit": "%"},
      {"measurement": "circulating IFN-γ following LPS", "setting": "circulating IFN-γ", "result": "abrogated"},
      {"measurement": "IL-18 activation of NF-κB", "setting": "IL-18", "result": "abolished"},
      {"measurement": "IL-18 induction of IL-8", "setting": "IL-18", "result": "abolished"},
      {"measurement": "IL-18 induction of interferon-γ (IFN-γ)", "setting": "IL-18", "result": "abolished"}
    ]}
  ]
}
